Test system: MS2 coat protein
Assay: apparent KD of MS2 coat protein; designed switch direction (-1 OFF switch, 1 ON switch): -1; higher = weaker reporter binding
Procedure, shortened: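 Each step of the titration lasted 0.8–1.5 h at the lowest concentration and 10–20 min at the highest. The protein, SNAP-549-labelled MS2 coat protein, went from 0.7 or 1.5 nM doubling to 3 µM over RNA switches transcribed on Illumina chips by stalled E. coli RNA polymerase. Normalised cluster fluorescence was curve-fitted, and the per-design median over clusters is given as apparent KD.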

[1] = Eterna round: R95, input ligand: FMN 200 uM
[2] = Eterna round: R95, input ligand: microRNA oligo, concentration not stated
[3] = Eterna round: R95, input ligand: none
[4] = input ligand: microRNA oligo, concentration not stated

Sequence | apparent KD of MS2 coat protein (input ligand: FMN 200 uM) [nM] | apparent KD of MS2 coat protein (input ligand: none) [nM] | apparent KD of MS2 coat protein [1] [nM] | apparent KD of MS2 coat protein [2] [nM] | apparent KD of MS2 coat protein [3] [nM] | apparent KD of MS2 coat protein [4] [nM]
AGAUCACAUGAGGAUCACCCAUGUCAGGAUAUCGUCACUGGAGCUGCGGCUCCAGUGACGAGAAGGGACAUAAU [E1/2-A3] (Eterna round: R97, puzzle: Exclusion 1) | 252 | 326 |  |  |  | 
AGAUCACAUGAGGAUCACCCAUGUGAGGAUAUCGACUGAACAGCUUCGGCUGUUCAGUCGAGAAGGCACAAUUA [EX1 #41] (Eterna round: R97, puzzle: Exclusion 1) | 45.1 | 23.8 |  |  |  | 
AGAUGGAAGCAGGAUAUGCUUGUAUAAUUGAAAGCAGAAGGGCUAACAUGAGGAUCACCCAUGUAAGAGGUGUA [JR_E6_Sub059] (puzzle: Exclusion 6) |  |  | 302 | 282 | 352 | 
AGAUGGCGAGGAUAUACAUGAGGAUCACCCAUGUGAGAGAAGAAAGUGAGGAAGAAAAGUAGAAGGCGCUGUCA [Mat - Exclusion 3 - Mod of Salish D11] (puzzle: Exclusion 3) |  |  | 184 | 54.4 | 60 | 
AGAUGUAGAUACCGAUCCUACAUGAGGAUCACCCAUGUAGCUAGACGUGCUCGCGUGGCUCGUCAGACUACCAGUAG [salish99_TOv1_r3_091] (puzzle: Sensor v3, turn-off variant 1) |  |  | 243 | 211 | 281 | 
AGAUGUAGAUACCGAUCCUACAUGAGGAUCACCCAUGUAGCUAGACGUGCUCGCGUUGCUCGUCAGACUACCAGUAG [salish99_TOv1_r3_088] (puzzle: Sensor v3, turn-off variant 1) |  |  | 279 | 286 | 382 | 
AGAUGUUAUAAGGAUAUGCAGGCCAUCGCAUCAGCAGAAGGUGUAACAUGAGGAUCACCCAUGUAAACGAACUG [Eternabot (L1) Solution 44] (Eterna round: R97, puzzle: Exclusion 6) | 28.9 | 22.8 |  |  |  | 
AGCAUGCUAGGAUAUACGGGACAUUAGGGUUUGUCGUGUGGACAUGAGGAUCACCCAUGUAGAAGGAGCGUGCA [Mat - Exclusion 2 - Mod of Hyphema - D92] (puzzle: Exclusion 2) |  |  |  | 46.5 |  | 
AGCAUGGUAGGAUAUACGGAACAUUAGGGUUUGUUAUGUGGACAUGAGGAUCACCCAUGUAGAAGGGCCGUGCA [Mat - Exclusion 2 - Mod of JL - D80] (puzzle: Exclusion 2) |  |  |  | 32.3 |  | 
AGCAUGUAAGGAUAUGUAACGCGGCUUUCAUUCGCCGUCCCACAGAAGGUACAUGAGGAUCACCCAUGUGCUCC [Solaisorin] (puzzle: Exclusion 4) |  |  |  | 33.3 |  | 
AGCGAAGAGACAGGAUAUGAGAAUAGAUAGAGCUCAGAAGGGUCACAUGAGGAUCACCCAUGUAAAGUCUUGAGGCUGCGUGGU [Prohibition 10 - Jieux - Exclusion NG 1] (Eterna round: R96, puzzle: Exclusion NG 1) | 123 | 61.7 |  |  |  | 41.1
AGCGACCAAGGAUAUACAUGAGGAUCACCCAUGUCGGCGACCUUCCUGGGAUUUCUUAGUAGAAGGUGGUCAAU [Gesodieddi] (puzzle: Exclusion 3) |  |  |  | 35.2 |  | 
AGCGCCAUCGUGAGAUGGCGUAUUACAUGAGGAUCACCCAUGUAGGAUAUCGAUUGCUUUGCAGUCGAGAAGGACAUGUUCUAG [JL ENG3 3.80 Mod A] (Eterna round: R96, puzzle: Exclusion NG 3) | 95.5 | 60.6 |  |  |  | 35.9
AGCGCCAUGCUCGUCUUACACAUGAGGAUCACCCAUGUUGGGUCUCAGAUGCGGUAAUAGCCCGUUGAAUCUAGUGG [Eternabot (L1) Solution 38] (Eterna round: R97, puzzle: Sensor, turn-off variant 1) | 182 | 191 |  |  |  | 
AGCUAACGAACAGGAUAUCCAAAGCGAUAGCAGGGAGAAGGGUUCAGAACUUGAGGAUCACCCAAGUGGGCUGAGCUCGGGAAA [Mutated MS2 EX1.3] (Eterna round: R96, puzzle: Exclusion NG 1) | 12 | 20.9 |  |  |  | 12.6
AGCUAGAUAGGAUAUGCCCGGGAUAACAUGAGGAUCACCCAUGUGGCCGAAUCAAAUCCAGCAGAAGGGUUUGGGA [Mod of ViennaUCT 12 - Jieux - Exclusion 5] (Eterna round: R97, puzzle: Exclusion 5) | 30.8 | 38.7 |  |  |  | 
AGCUAGUGAGGAUAUACAAGAAUAUAAACGAACAUAAAGGGACAUGAGGAUCACCCAUGUAGAAGGCACUAGCA [Diamond 73] (Eterna round: R96, puzzle: Exclusion 2) |  |  |  |  |  | 29.3
